# Results published in PMC3965211.
# Biological target: Full-length human His6-Kif15 (human) (UniProt Q9NS87)
# Assay: glycerol gradient ultracentrifugation; 2.5 µM hTpx2 (dimer) + 80 nM hKif15 (tetramer), 5-40% glycerol gradient in 35 mM sodium phosphate buffer
# Chain of Full-length human His6-Kif15 (human) (Q9NS87 whole entry): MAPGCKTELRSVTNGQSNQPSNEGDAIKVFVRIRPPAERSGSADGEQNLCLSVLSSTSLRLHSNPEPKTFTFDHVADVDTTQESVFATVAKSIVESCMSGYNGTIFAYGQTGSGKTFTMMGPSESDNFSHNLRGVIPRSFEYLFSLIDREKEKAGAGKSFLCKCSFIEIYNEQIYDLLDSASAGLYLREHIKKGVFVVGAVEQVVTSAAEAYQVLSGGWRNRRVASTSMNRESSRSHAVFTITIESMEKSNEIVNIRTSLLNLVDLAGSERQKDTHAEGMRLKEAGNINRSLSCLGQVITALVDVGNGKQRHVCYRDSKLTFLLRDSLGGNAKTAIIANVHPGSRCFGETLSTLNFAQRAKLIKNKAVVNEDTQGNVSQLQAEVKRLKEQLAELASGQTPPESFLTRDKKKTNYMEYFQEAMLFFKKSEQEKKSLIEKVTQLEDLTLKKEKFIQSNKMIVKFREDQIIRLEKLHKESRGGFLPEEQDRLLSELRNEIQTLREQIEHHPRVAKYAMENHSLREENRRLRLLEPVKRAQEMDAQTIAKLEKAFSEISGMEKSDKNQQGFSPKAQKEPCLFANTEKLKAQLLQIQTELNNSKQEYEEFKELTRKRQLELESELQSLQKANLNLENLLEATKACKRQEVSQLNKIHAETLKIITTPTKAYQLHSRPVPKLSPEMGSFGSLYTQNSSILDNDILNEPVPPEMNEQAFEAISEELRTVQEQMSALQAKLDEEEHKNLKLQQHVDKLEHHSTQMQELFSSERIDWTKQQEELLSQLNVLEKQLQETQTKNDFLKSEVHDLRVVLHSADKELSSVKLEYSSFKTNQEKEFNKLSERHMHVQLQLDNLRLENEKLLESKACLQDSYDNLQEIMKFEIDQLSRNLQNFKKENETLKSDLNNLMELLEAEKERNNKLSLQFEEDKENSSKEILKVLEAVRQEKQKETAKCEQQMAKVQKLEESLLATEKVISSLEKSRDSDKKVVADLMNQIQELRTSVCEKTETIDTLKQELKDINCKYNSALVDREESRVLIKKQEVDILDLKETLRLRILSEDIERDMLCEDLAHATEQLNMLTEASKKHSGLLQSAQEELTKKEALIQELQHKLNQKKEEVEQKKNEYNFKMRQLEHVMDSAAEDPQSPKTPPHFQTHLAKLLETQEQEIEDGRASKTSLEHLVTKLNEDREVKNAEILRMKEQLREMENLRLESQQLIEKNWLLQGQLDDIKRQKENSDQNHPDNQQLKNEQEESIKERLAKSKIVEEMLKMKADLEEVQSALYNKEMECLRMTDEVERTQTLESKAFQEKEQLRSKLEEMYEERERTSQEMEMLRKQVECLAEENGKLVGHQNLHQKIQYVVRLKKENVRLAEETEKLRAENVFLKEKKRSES
substance,measurement,value
human His6-Tpx2 (from UniProt Q9ULW0 1-747) (natural protein),fraction of the provided hKif15 in the complex,0.33
